Columns and labels:
[1] = target: T1, SARS-CoV spike extracellular domain (CoV-S) (SARS-CoV, UniProt P59594 14-1190); experiment: flow cytometry
SARS-CoV-2 spike RBD = SARS-CoV-2 spike RBD (SARS-CoV-2, UniProt P0DTC2 319-591); experiment: flow cytometry
[2] = target: T2, ACE2 extracellular domain (human, UniProt Q9BYF1 19-615); experiment: flow cytometry
Nek7 = Nek7 (human, UniProt Q8TDX7 1-302); experiment: pull-down
[3] = target: T2, ACE2 extracellular domain; experiment: pull-down
[4] = target: T1, SARS-CoV spike extracellular domain …; experiment: pull-down

T2 sequence (Q9BYF1 19-615): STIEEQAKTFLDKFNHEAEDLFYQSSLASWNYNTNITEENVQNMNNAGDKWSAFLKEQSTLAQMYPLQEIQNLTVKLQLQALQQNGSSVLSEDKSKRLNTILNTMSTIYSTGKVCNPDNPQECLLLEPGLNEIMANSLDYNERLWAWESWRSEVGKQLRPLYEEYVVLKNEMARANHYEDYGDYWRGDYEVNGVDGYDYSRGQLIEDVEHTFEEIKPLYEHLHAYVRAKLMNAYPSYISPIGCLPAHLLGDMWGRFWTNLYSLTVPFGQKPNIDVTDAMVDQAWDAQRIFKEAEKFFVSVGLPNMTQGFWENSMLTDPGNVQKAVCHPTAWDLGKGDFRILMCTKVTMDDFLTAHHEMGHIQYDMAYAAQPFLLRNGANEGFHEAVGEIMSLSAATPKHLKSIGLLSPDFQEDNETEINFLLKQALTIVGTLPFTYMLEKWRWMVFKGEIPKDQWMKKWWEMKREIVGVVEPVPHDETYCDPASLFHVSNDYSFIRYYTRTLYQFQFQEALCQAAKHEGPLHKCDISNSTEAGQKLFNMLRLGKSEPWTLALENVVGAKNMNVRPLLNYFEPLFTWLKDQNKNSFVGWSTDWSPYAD
Sequence of Nek7 (Q8TDX7 whole entry, the tested form may be a part): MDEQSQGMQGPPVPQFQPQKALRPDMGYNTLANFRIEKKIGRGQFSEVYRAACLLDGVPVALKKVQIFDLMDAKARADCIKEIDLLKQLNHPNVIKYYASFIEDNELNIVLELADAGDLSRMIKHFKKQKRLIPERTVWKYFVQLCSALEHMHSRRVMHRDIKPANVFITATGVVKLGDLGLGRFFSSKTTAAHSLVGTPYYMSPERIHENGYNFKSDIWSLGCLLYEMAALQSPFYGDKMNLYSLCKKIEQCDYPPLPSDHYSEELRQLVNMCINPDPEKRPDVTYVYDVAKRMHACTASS

| Binder | binding result [1] | binding result (SARS-CoV-2 spike RBD) | binding result [2] | also measured |
| --- | --- | --- | --- | --- |
| SP5 (ssDNA) DNA: GGGAGAGGAGGGAGATAGATATCAACCATGGTAGGTATTGCTTGGTAGGGATAGTGGGCTTGATGTTTCGTGGATGCCACAGGAC | no binding | no binding | no binding |  |
| SP6 (ssDNA) DNA: GGGAGAGGAGGGAGATAGATATCAACCCATGGTAGGTATTGCTTGGTAGGGATAGTGGGCTTGATGTTTCGTGGATGCCACAGGAC | no binding | no binding | no binding |  |
| SP7 (ssDNA) DNA: GGGAGAGGAGGGAGATAGATATCAAAGGAGGGTAGGTAGTGCTTGGTAGGGAAACTCCGCCGATTTTTCGTGGATGCCACAGGAC | no binding | no binding | no binding |  |
| RBD1 (ssDNA) DNA: GGGAGAGGAGGGAGATAGATATCAAGTTAGGTTCTGGATTAGGTTAGGGTTGTGTTGTTGTTAGGTTTCGTGGATGCCACAGGAC |  | binds |  |  |
| RBD2 (ssDNA) DNA: GGGAGAGGAGGGAGATAGATATCAATACAGTTGGTTGTAGGTTTTTGTTAGGTTAGTTTAGGGTTTTTCGTGGATGCCACAGGAC |  | binds |  |  |
| RBD3 (ssDNA) DNA: GGGAGAGGAGGGAGATAGATATCAATGGGTGTTTTGGTTGTAGGGTTTAGGTTTAGGGTACTCTTTTTCGTGGATGCCACAGGAC |  | binds |  |  |
| RBD4 (ssDNA) DNA: GGGAGAGGAGGGAGATAGATATCAATGGGTGGGAGGGAGGGGGGCTTTATTCCGGTGTTTTTTCGTTTCGTGGATGCCACAGGAC |  | binds |  |  |
| SP6 biotin (ssDNA) DNA: GGGAGAGGAGGGAGATAGATATCAACCCATGGTAGGTATTGCTTGGTAGGGATAGTGGGCTTGATGTTTCGTGGATGCCACAGGAC |  |  |  | binding result (Nek7): no binding; binding result [3]: no binding; binding result [4]: no binding |

From paper PMC8250900
